The source of these data is article PMC4888466.

Substrate in data set [1]: O=P(O)(O)O[C@H]1O[C@H](CO)[C@@H](O)[C@H](O)[C@H]1O
Nature of the data set: purified protein. In kind it is biochemical, Caenorhabditis elegans. Conditions: 1 mM UTP, 5 mM MgCl2, pH 7.5, 25°C.

Substrate in data set [2]: O=c1ccn([C@@H]2O[C@H](COP(=O)(O)OP(=O)(O)OP(=O)(O)O)[C@@H](O)[C@H]2O)c(=O)[nH]1
Nature of the data set: purified protein. In kind it is biochemical, Caenorhabditis elegans. Conditions: 1 mM Glc-1-P, 5 mM MgCl2, pH 7.5, 25°C.

B1: UGP-1 (Caenorhabditis elegans) (protein)
chain: MSNDQLKSKLREFFDRQPDQSEKAHQDSKIFEVLYSQFLENQHCIDWNSWKFLEEKHQVTLKDLEPFDKSRFNILNKLAVIKLNGGLGTTMGCSKAKSLVEVREGYTFMDLAVLEHQKMCEAHNVDTPLYLMNSFYTDEDTKKYLAEKGYSNVKTFVQSKCPRLDAETKLPIEDENEDWGDDAWCPPGHGNIFQSLQNSGVLDQLLADGREIIFVSNIDNTGANTDLQIVQLMLDKNVDYIMECTPKTQVDVKGGTLIDIGGRMMHLEMPQVPAENLPDFCSTKVFKIFNTNNIYVNLKAVKKLLPDIKSEIIVNKKTIRSREVLQLEFSIGGCIKNFDNALCVHVERKRFRPVKNLGDLLSLRSTLCDLDHSTFKVHHNHELGAPPVISLDPSIYNSVEVVDLKFPHPLVMDNCSEFAVVGDVTFGKNVKLSGKVTVNGKTESPGVVPDGTVLKDQEYIAE
As for B1, in “purified protein [1]”, the Michaelis constant (Km) came to 77.65 ± 7.73 µM, the kcat stood at 23 ± 0.65 s⁻¹ and the catalytic efficiency (kcat/Km) worked out at 300000 ± 31000 M⁻¹ s⁻¹. For the same protein, in the data set “purified protein [2]”, the Michaelis constant (Km) came to 13.85 ± 2.95 µM, the turnover number (kcat) amounted to 20 ± 0.7 s⁻¹ and the kcat/Km amounted to 1.45e+06 ± 310000 M⁻¹ s⁻¹.

Broadly, the Km is the concentration of substrate that gives half-maximal velocity. As a reminder, the kcat is the maximal rate divided by the concentration of active sites. The kcat/Km is the second-order rate constant that governs catalysis at low substrate concentration.
